# Assay results reported in patent US12344663B2, “Anti-C3 antibodies and antigen-binding fragments thereof and their uses for treating eye or ocular diseases” (CDR-Life AG, priority 2021, dated 2025).
# What was measured:
# [1] = test system: pre-existing ADA; assay: Bridging ELISA screen for pre-existing ADA in sera of healthy human donors; conditions: 10% serum of healthy human donors
# From the text: The inventors screen sera of healthy human donors for pre-existing ADA against Clone I using a bridging ELISA. Pre-existing ADAs present in serum from healthy human donors are bound by immobilized anti-C3 scFv. In a next step, ADAs are bound by the same anti-C3 scFv labeled with biotin and are detected by HRP-conjugated Streptavidin.
# The scFv is biotin-labeled using the “Biotin Conjugation Kit (Fast, Type A)-Lightning-Link”-Kit (Expedeon/Abcam) following the suppliers' instructions. The unlabeled scFv is diluted to 0.5 μg/ml in PBS, 50 μl per well transferred to a 96 well plate and incubated overnight at 4° C. On the next day, the 96 well plate is washed with wash buffer (3×320 μl, 0.05% Tween 20 in PBS pH 7.4) and non-specific binding sites are blocked with 300 μl/well blocking buffer (SuperBlock Blocking Buffer; ThermoFisher scientific) for 30 min at room temperature. The wells are then washed with wash buffer (3×320 μl/well)
# Human serum from healthy volunteers is diluted to 10% in PBS, 50 μl/well are added to the 96 well plate and the plate incubated for 1 hr at room temperature. […]
# The plate is washed (3×320 μl/well wash buffer), 50 μl/well TMB substrate (Invitrogen) is added and incubated for 5 min at room temperature. […] The absorption is measured at 450 nm. […]
# [2] = In vitro BrM permeation assay, Ussing chamber; assay type: in vitro ADME, porcine; conditions: 0.1 mg/ml, up to 72 h, in words
# Procedure: Porcine Bruch's membrane samples are used for this measurement. Porcine eyes are collected from the slaughterhouse) no more than 6 hours after the animals were sacrificed and stored at 4° C. until use (on same day).
# Preparation of enriched Bruch's Membrane (BrM): The eyes are placed into a disposable petri-dish and any residual tissue surrounding the eyeball is removed. The eyeball is incised next to the iris with a scalpel and the front part of the eye as well as lens, vitreous and retinal tissue are removed from the eyecup. […]
# Sampling and membrane integrity analysis: For sampling at different timepoints (4 h, 24 h, 48 h and 72 h) the solution in the single compartments is mixed by carefully pipetting up and down and 90 μl were transferred separately from each sample and diffusate chamber to collection tubes. […] Accumulation of blue particles in the second compartment is observed and camera pictures are recorded to control for overall membrane integrity.
# Sample analysis: 15 μl of each solution from the sample and diffusate chambers are effectively loaded on 2 precast polyacrylamide gels (NuPAGE Bis-Tris gels) together with a similar amount of stored mastermix as loading control. The first gel is analyzed by standard SDS-PAGE and Coomassie-based staining methods for protein detection (anti-C3 scFv). […]
# Evaluation: Pictures of the SDS-gels are analyzed using ImageJ2 software (Fiji). […]
molecule,measurement,setting,value
"Clone I: humanized anti-C3 scFv, VH SEQ ID NO: 20, VL SEQ ID NO: 21; scFv SEQ ID NO: 26 or 27 (antibody, V domains shown, VH; VL) VH: QVQLVESGGGSVQPGRSLRLSCAASGFTFSNYAMNWVRQAPGKGLEWVAVISYDGSNKYYADSVKGRFTISRDNSKNTLYLQMNSLRAEDTASYYCARAVGYHHARLDPWGCGTSVTVSS VL: QLVLTQSPSASASLGASVKLTCTLSSAHKTYTIDWYQQQPEKCPRYLMQLKSDGSYTKGSGIPDRFSGSSSGAERYLTISSLQSEDEADYYCGTEGVGGYVFGGGTKLTVLG",Serum samples with pre-existing ADA,[1],9 out of 50
same,Diffusion/penetration through porcine Bruch's membrane,[2],superior diffusion ability
